From the supplement of paper PMC9942255
Values joined by “and” are separate entries in the source; they are usually repeats but may differ in a detail not shown here. Equal values may be shown once.

test system: Bacillus subtilis DB104 (SP-AmyQ fusion secretion); test: AmyQ secretion efficiency, weighted average sort bin (1 = best secretion, 10 = worst) (bin number (weighted average, 1-10)); higher = lower secretion efficiency
How it was run: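 The secretion score was taken as the read-frequency-weighted mean bin number, normalised to beads per bin, with low-abundance sequences excluded. Bins came from large-particle flow cytometry sorting of occupied alginate beads (~65 nL, about 0.3 cells each, with fluorescein-starch) into 10 equally populated groups by green/red fluorescence ratio after about 13 h at room temperature and nile red staining. The cells were a B. subtilis DB104 library with mature AmyQ fused to designed signal peptides, integrated at amyE, and each bin's amplicons were Illumina-sequenced.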

Sequence	AmyQ secretion efficiency
MKKRLIGFLVLVPALIMSGITLIEINKK	7.02
MLKKIALTLCPAIVGSLLFFTAPASKHVS	5.12
MKLKSKLLLSCLALSTVFVATTIANAPTR	6.08
MPYLKRVLLLLVTGLFMSLFAVTATASMQTG	1.29
MKRTWNVCLTALLSVLLVAGSVPSHAEAKKP	1.85
MMKKLFHSTLRKLLFFSFFGVQPIHAKKQ	7.14
MKKAFILSAAAAVGLFTFEEDEDEASAKEL	4.76
MFFKKTVVSALSISALALSVSGVASAHEI	3
MKKWIYVVLVLSIAGIGGFSMHAASS	5.22
MKRLLSTLLIGIMLLTFAPSAFAAQQ	1.25
MMMWLIIAVSLAIAIVLFMYTKGEAKAAGM	6.9
MKKKLAAGLTASAIVGTTLVGGGAEAATI	4.73
MPIKKKVMMCLAVTLVFGSMSFPTLTNSGEFKE	5.74
MKKLLAAGIIGLLTVSIASPSFSAEK	3.02
MLCVMMLLFSAIAEEEDEEAQAKDQ	7.25
MKKGIIRFLLVSFVLFFALSTGITGSQAAPA	4.62
MKLAKRVSALTPSTTLAITAKADEE	6.16
MNKKYFVLIVCIIFTSALFPTFAVTVTAAQG	1.05
MRKKRRRSLITLGLASVIGTSSFLIPFTSKTASAETL	1.75
MKKWMITIAMLILAGIALFVFISPLKSHKT	6.27 and 6.6 and 6.11
MKNMSCKLVVSVTLFFSFLGIFVLAHAQNS	4.32
MNLRKTYGSSALSLGMLVSAAPVLATSS	6.93

Sequence	AmyQ secretion efficiency
MKRTWNRQRKVCLTALLSVLLVAGSVPFHAEAKKP	2.09
MKKQIITATTAVVLGSTLFAGARSAQSI	3.67
MMKQIITATTAVVLGSTLFAGAASAQSI	2.49
MRNLTKTSLLLAGLCTAAQMVFVTHWSAEES	8.27
MRKKRVILAAFILVGSTLGAFSFSSDASAKHV	2.62
MKLWMRKTLVVLFTIVTFGLVSPPAALMVDKP	2.11
MKKAFLVFLSVVLVTTVFLVKQQESVAQRKQL	2.03
MKSKGSIMACLILFSFTITTFINTETESAFSN	7.01
MKKFLLVSFVLFFALSTGITGVQAAPA	2.2
MLGIRLLTIYIMLLGLIAWFPGAAQAEEK	2.38
MKRKRLLSTLLIGIMLLTFAPSAFAKQD	1.87
MLKKIALTLCPAIVGSLLFFTAPASQHVS	5.33
MKRLKKTLLIGIMLLTFAPSAFAKQD	1.92
MKKRLIAPMFSSLLSAASLAFFAMSGSAQAAAY	3.7
MNLRKIMSIMNIILLSSALSLGMLVSAAPVLATSS	2.04
MRPVFPLILSAVLFLSCFFGARQTEESASKR	7.33
MKLSVKIAGVLTVAAAAMTAKMYATTKGN	5.53
MKKGIIRFRRKKFVLFFALSTGITGVQAAPA	4.49
MKKTIMSFVAVAALSTTAFGAHCSAKEI	2.42
MKRLLILLLIIIMLLGGTTFAPSAFAKQD	2
MKKCLLFLTTIALILSGSTNAFAKNT	1.7
MKRIRIPMTLALGAALTIAPLSFASSEEN	4.71

Sequence	AmyQ secretion efficiency
MKKAFILSAAAAVGLFTFGGVQQLSAKEL	3.38
MTKTIFAFLTGLMMFGTITAASASPD	3.99
MKLSVKIAGVLTVAAAAMTAKMYPTAKGN	5.7
MRKKCSTCRWILVLLLSCLSGKSAYAATS	5.49
MKKTIMSFVAVAALSTGAHASAKEI	2.46
MKLAKRVSALTPSTTLAITTKAKEL	6.55
MLKKKWMVGLLAGCLAAGGFSYNAFWTEN	6.56
MYNRKRRVCFLAALIMAFTLPNSVYAQKP	2.73
MKRMIVRMTLPLLIVCLAFSSFSASAPVGARAASE	2.02
MKKWIYVVLVLSIAGIGGFSVHCASS	6.47
MKRLLSTLLIGIMLLVTFAPSAFAKQD	2.15
MKKLVLCVSILAVILSGVYLTQLS	5.92
MSGTCSIVCLWILVLLLSCLSGKSAYAATS	3.6
MKQFAITLSVLCALILLVPTLLVIPFFHNKEAGASV	6.58
MKKTGQQLLSLGLVFGFSYGAGHVAEAKTK	3.07
MRKYTVIASILLSFLSVLRGGHHRSKAFPV	7.77
MKKKQVMLALTAAAGLGLTALHSAPAAKIAPL	6.05
MPIKKKVMMCLAVTLVFGSMDEETLTNSGGFKE	6.94
MRSYIKVLTMCFLGLILFVPTFLADNS	5.95
MKKSQYFIVFICFFVLFSVHPIAAACADS	4.69
